Laboratory results from article PMC13544220, “Glycemic and bodyweight effects of GIPR coding variation reflect differences in surface expression and intrinsic functional impairment” (Science Advances, 2026).

Key:
Format in all cases: cell-based, human
[1] = system: wild-type and variant SNAP-GIPR; assay: Single-concentration GIP cAMP response by HTRF in AD293 cells; settings: Fig S3F, HTRF, mean;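 further: ratio to experiment-wide average response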
Description: (§1) All variants were tested in parallel on each occasion to control for transfection efficiency differences between experiments.

[2] = system: wild-type and variant SNAP-GIPR; assay: Single-concentration GIP cAMP response by HTRF in INS-1 cells; settings: Fig S3E, mean
Description: as §1

[3] = system: wild-type and variant SNAP-GIPR; assay: Constitutive and agonist-mediated internalization, reversible SNAP-tag labelling, INS-1 cells; parameters: key to Internalisation, GIP-only / Internalisation, Vehicle / Internalisation, +GIP: % internalization: residual fluorescence after Mesna vs pre-Mesna; settings: Mean
Description: (§2) Twenty-four hours before the experiment, AD293 or INS-1 cells were reverse transfected with GIPR variant or wild-type plasmids using Lipofectamine 2000 in 96-well, clear-bottom, black microplates precoated with poly-D-lysine. All variants were tested in parallel on each occasion to control for transfection efficiency differences between experiments. […] Media were then removed, cells washed with PBS and then placed in TNE buffer (pH 8.6) for imaging. […] After 10 min, the well was reimaged again to detect remaining fluorescence from internalized GIPR. Images were analyzed as in the “Assessment of surface GIPR expression by SNAP-tag labeling in cell lines” section, with the residual specific fluorescence after Mesna treatment expressed relative to the pre-Mesna value to establish percentage internalization.

[4] = system: wild-type and variant SNAP-GIPR; assay: Constitutive and agonist-mediated internalization, reversible SNAP-tag labelling, AD293 cells; parameters: key to Internalisation, Vehicle / Internalisation, +GIP / Internalisation, GIP-only: % internalization: residual fluorescence after Mesna vs pre-Mesna; Surface expression: unit not given here; settings: Mean
Description: as §2

[5] = system: wild-type and variant SNAP-GIPR; assay: Surface SNAP-GIPR expression (SNAP-tag labelling) in AD293 cells; settings: for AD293 Surface: Fig S3E, mean; for Surface SNAP-GIPR expression: sheet Fig 1C;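 on all read-outs here: scaled to the experimental average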
Outline: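 Read-out: whole-cell fluorescence of surface-only SNAP label (Alexa Fluor 647, 500 nM, 10 min, RT), wide-field 20X, several FOVs per well. Flat-field corrected, phase-contrast masked, nontransfected-well signal subtracted; normalized to experiment mean or wild-type.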

[6] = system: wild-type and variant SNAP-GIPR; assay: Surface SNAP-GIPR expression (SNAP-tag labelling) in INS-1 cells; settings: Fig 4G; Mean
Description: Twenty-four hours before the experiment, AD293 or INS-1 cells were reverse transfected with GIPR variant or wild-type plasmids using Lipofectamine 2000 in 96-well, clear-bottom, black microplates precoated with poly-D-lysine. All variants were tested in parallel on each occasion to control for transfection efficiency differences between experiments. Cells were then labeled using the cell-impermeant probe SNAP-Surface Alexa Fluor 647 (500 nM, New England Biolabs, USA) for 10 min at room temperature to label only surface GIPR. […] Several fields of view (FOVs) were acquired within each well using a 20X, 0.75–numerical aperture (NA) air objective. Surface GIPR fluorescence was quantified after flat-field correction using BaSiC ([72]) and segmenting using Phantast ([73]), which generates a mask based on the phase contrast images to demarcate cell versus noncell. Wide-field imaging of the surface-specific labeling achieved by SNAP-Surface probes means that surface expression can be established from whole-cell fluorescence, after subtracting nonspecific fluorescence from a separate well containing nontransfected cells processed in parallel from the same experiment. Data were normalized by dividing by the average specific signal across each experiment, or by the wild-type value, as indicated in the figure legends.

[7] = system: wild-type and variant SNAP-GIPR; assay: cADDis cAMP imaging in AD293 cells, ensemble, expression-matched and per decile; settings: Fig S3F, cADDis, mean
Description: AD293 cells were reverse transfected with the GIPR variant or wild-type plasmids using Lipofectamine 2000 and cotransduced with the cADDis Green Up BacMam (10 μl per well, Montana Molecular, USA), in 96-well, poly-D-lysine–coated microplates. All variants were tested in parallel on each occasion to control for transfection efficiency differences between experiments. After 24 hours, cells were labeled using 500 nM SNAP-Surface Alexa Fluor 647 for 10 min at room temperature. Cells were washed three times and then imaged in KRBH buffer containing 6 mM glucose and 0.1% BSA. Imaging was performed at 37°C by wide-field microscopy using the same microscope as in the “Assessment of surface GIPR expression by SNAP-tag labeling in cell lines” section, with 9 FOVs for both cADDis and SNAP-Surface fluorescence acquired from each well using a 10X, 0.45 NA air objective. […] Flat-field correction was performed using BaSiC ([72]), drift correction was performed using SIFT, and a maximum intensity projection of the cADDis channel was used to segment individual cells. cAMP responses were determined by quantifying the cADDis fluorescence intensity for each cell at each time point. Nonviable cells or noncell objects were excluded according to criteria for allowable cell IBMX/FSK responses. […] The cADDis mask was then used to quantify the SNAP-Surface signal from each cell. Wild-type SNAP-Surface readings were split into deciles, and these deciles were subsequently used to categorize variant-transfected cells to match against the wild type. After trimming the top and bottom deciles, the mean was taken of each decile mean for surface expression level or cAMP response, which achieved matched expression levels by effectively applying an inverse weighting to counteract differences in cell number in each decile for different variants. Ensemble expression levels or cAMP responses were calculated without regard to deciles. Variant cADDis responses were also analyzed within their own surface expression deciles.

B1: T116R (protein, UniProt P48546 22-466, looked up, variant T116R)
Gastric inhibitory …: RAETGSKGQTAGELYQRWERYRRECQETLAAAEPPSGLACNGSFDMYVCWDYAAPNATARASCPWYLPWHHHVAAGFVLRQCGSDGQWGLWRDHRQCENPEKNEAFLDQRLILERLQVMYTVGYSLSLATLLLALLILSLFRRLHCTRNYIHINLFTSFMLRAAAILSRDRLLPRPGPYLGDQALALWNQALAACRTAQIVTQYCVGANYTWLLVEGVYLHSLLVLVGGSEEGHFRYYLLLGWGAPALFVIPWVIVRYLYENTQCWERNEVKAIWWIIRTPILMTILINFLIFIRILGILLSKLRTRQMRCRDYRLRLARSTLTLVPLLGVHEVVFAPVTEEQARGALRFAKLGFEIFLSSFQGFLVSVLYCFINKEVQSEIRRGWHHCRLRRSLGEEQRQLPERAFRALPSGSGPGEVPTSRGLSSGTLPGPGNEASRELESYC
- AD293 100 pM HTRF ([1]; AD293, 100 pM): 0.9665
- AD293 100 nM HTRF ([1]; AD293, 100 nM): 1.485
- INS-1 cAMP (100 nM) [2]: 1.507
- +GIP internalisation (100 nM) ([3]; Fig 4G, GIP 100 nM): 0.7228
- GIP-specific internalisation (100 nM) ([3]; Fig 4G, GIP 100 nM): 0.1652
- Constitutive internalisation (100 nM) ([3]; Fig 4G): 0.5577
- Internalisation, +GIP ([3]; Fig S4C, INS-1): 48.6183
- Internalisation, GIP-only ([3]; Fig S4C, INS-1): 11.125
- Internalisation, Vehicle ([3]; Fig S4C, INS-1): 37.4933
- +GIP internalisation (100 nM) ([4]; Fig 4E, GIP 100 nM): 0.9677
- GIP-specific internalisation (100 nM) ([4]; Fig 4E, GIP 100 nM): 0.2939
- Constitutive internalisation (100 nM) ([4]; Fig 4E): 0.6738
- Surface expression ([4]; Fig 4E): 1.687
- Internalisation, +GIP ([4]; Fig S4C, AD293): 57.3525
- Internalisation, GIP-only ([4]; Fig S4C, AD293): 17.4551
- Internalisation, Vehicle ([4]; Fig S4C, AD293): 39.8973
- AD293 Surface ([5]; column repeated, paired with cAMP 100 nM): 1.324
- AD293 Surface ([5]; paired with cAMP 100 pM): 1.324
- Surface SNAP-GIPR expression ([5]; replicate 1): 1.245
- Surface SNAP-GIPR expression ([5]; replicate 2): 1.023
- Surface SNAP-GIPR expression ([5]; replicate 3): 0.6735
- Surface SNAP-GIPR expression ([5]; replicate 4): 1.28
- Surface SNAP-GIPR expression ([5]; replicate 5): 0.9777
- Surface SNAP-GIPR expression ([5]; replicate 6): 1.324
- Surface SNAP-GIPR expression ([5]; replicate 7): 1.095
- Surface SNAP-GIPR expression ([5]; replicate 8): 1.165
- Surface SNAP-GIPR expression ([5]; replicate 9): 1.067
- Surface SNAP-GIPR expression ([5]; replicate 10): 1.216
- Surface SNAP-GIPR expression ([5]; replicate 11): 0.8978
- Surface SNAP-GIPR expression ([5]; replicate 12): 1.007
- Surface SNAP-GIPR expression ([5]; replicate 13): 1.293
- Surface SNAP-GIPR expression ([5]; replicate 14): 1.058
- Surface SNAP-GIPR expression ([5]; replicate 15): 1.321
- Surface SNAP-GIPR expression ([5]; replicate 16): 1.079
- Surface SNAP-GIPR expression ([5]; replicate 17): 1.526
- Surface SNAP-GIPR expression ([5]; replicate 18): 1.463
- Surface SNAP-GIPR expression ([5]; replicate 19): 1.041
- Surface SNAP-GIPR expression ([5]; replicate 20): 1.229
- Surface SNAP-GIPR expression ([5]; replicate 21): 1.037
- Surface SNAP-GIPR expression ([5]; replicate 22): 1.307
- Surface SNAP-GIPR expression ([5]; replicate 23): 1.273
- Surface SNAP-GIPR expression ([5]; replicate 24): 1.448
- Surface SNAP-GIPR expression ([5]; replicate 25): 1.438
- Surface SNAP-GIPR expression ([5]; replicate 26): 1.564
- Surface SNAP-GIPR expression ([5]; replicate 27): 1.467
- Surface SNAP-GIPR expression ([5]; replicate 28): 1.252
- Surface SNAP-GIPR expression ([5]; replicate 29): 1.566
- Surface SNAP-GIPR expression ([5]; replicate 30): 1.334
- Surface SNAP-GIPR expression ([5]; replicate 31): 1.686
- Surface SNAP-GIPR expression ([5]; replicate 32): 1.692
- Surface SNAP-GIPR expression ([5]; replicate 33): 1.307
- Surface SNAP-GIPR expression ([5]; replicate 34): 1.109
- Surface SNAP-GIPR expression ([5]; replicate 35): 1.705
- Surface SNAP-GIPR expression ([5]; replicate 36): 1.374
- Surface SNAP-GIPR expression ([5]; replicate 37): 1.911
- Surface SNAP-GIPR expression ([5]; replicate 38): 1.787
- Surface SNAP-GIPR expression ([5]; replicate 39): 1.944
- Surface SNAP-GIPR expression ([5]; replicate 40): 1.676
- Surface SNAP-GIPR expression ([5]; replicate 41): 1.421
- Surface expression [6]: 1.428
- AD293 100 pM cADDis ([7]; AD293, 100 pM): 33.6456
- AD293 100 nM cADDis ([7]; AD293, 100 nM): 38.18
